Where two headings read alike, the source gives them in different places.
Tests used:
[1] = biological target: T1, PDGFRβ-His (residues 1-314 of PDGFR-β with C-terminal hexahistidine tag) (human, UniProt P09619 33-314); assay: yeast surface display titration, flow cytometry
T1 construct: range 1-314; Monovalent form, expressed in FreeStyle 293-F cells; also called PDGRβ-His; PDGFR-His

[2] = biological target: T2, VEGFR2-His (residues 1-764 of VEGFR2, Ig-like domains 1-7, with hexahistidine tag) (human, UniProt P35968 20-764); assay: yeast surface display titration, flow cytometry
T2 construct: range 1-764; Monomeric form, expressed in FreeStyle 293-F cells; also called VEGFR-His
T2 sequence (P35968 other isoform, or with tags, fused parts or gaps limits assumed, form in doubt): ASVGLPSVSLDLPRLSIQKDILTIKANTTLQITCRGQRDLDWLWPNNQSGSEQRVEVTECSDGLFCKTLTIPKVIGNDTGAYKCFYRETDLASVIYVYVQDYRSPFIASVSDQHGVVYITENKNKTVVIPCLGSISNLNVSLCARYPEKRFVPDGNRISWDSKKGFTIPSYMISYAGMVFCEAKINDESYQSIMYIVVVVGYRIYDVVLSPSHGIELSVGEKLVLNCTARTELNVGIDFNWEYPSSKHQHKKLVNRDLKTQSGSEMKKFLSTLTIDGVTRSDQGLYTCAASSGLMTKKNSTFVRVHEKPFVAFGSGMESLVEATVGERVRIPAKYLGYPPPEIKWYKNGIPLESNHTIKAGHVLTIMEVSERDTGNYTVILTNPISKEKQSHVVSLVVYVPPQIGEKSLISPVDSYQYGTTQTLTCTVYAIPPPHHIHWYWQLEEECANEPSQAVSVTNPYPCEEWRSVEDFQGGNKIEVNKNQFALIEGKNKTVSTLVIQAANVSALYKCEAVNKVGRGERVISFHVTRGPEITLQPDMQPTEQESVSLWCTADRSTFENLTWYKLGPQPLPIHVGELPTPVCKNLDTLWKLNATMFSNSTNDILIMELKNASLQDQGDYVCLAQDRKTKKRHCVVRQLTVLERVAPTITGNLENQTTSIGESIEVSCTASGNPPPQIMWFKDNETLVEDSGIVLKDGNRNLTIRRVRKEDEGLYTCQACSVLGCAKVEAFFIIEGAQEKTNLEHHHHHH

[3] = biological target: T1, PDGFRβ-His (residues 1-314 of PDGFR-β …); assay: yeast surface display titration, flow cytometry; remark: listed apart in the source
[4] = biological target: T2, VEGFR2-His (residues 1-764 of VEGFR2, …); assay: yeast surface display titration, flow cytometry; remark: listed apart in the source
[5] = biological target: T1, PDGFRβ-His (residues 1-314 of PDGFR-β …); assay: yeast surface display titration, flow cytometry; remark: listed apart in the source
Experimental: (§1) Cells were incubated in large enough volumes to avoid ligand depletion and appropriate time to reach equilibrium. During the last hour of incubation, yeast were incubated with 1:250 dilution of chicken anti-c-Myc (Invitrogen) in PBSA. […] Yeast were washed, pelleted, and resuspended in PBSA immediately before analysis by flow cytometry using BD FACSCalibur or BD Accuri C6. Flow cytometry data were analyzed using FlowJo (v7.6.1 and v10, Treestar) or BD Accuri C6 software. Statistical analysis was performed using GraphPad Prism 6.

[6] = biological target: T2, VEGFR2-His (residues 1-764 of VEGFR2, …); assay: yeast surface display titration, flow cytometry; remark: listed apart in the source
Experimental: as §1

[7] = biological target: T1, PDGFRβ-His (residues 1-314 of PDGFR-β …); assay: yeast surface display, flow cytometry titration of PDGFRβ-His (panel 'PDGFRβ binding')
Experimental: as §1

[8] = biological target: T2, VEGFR2-His (residues 1-764 of VEGFR2, …); assay: yeast surface display, flow cytometry equilibrium titration of VEGFR2-His, normalized fluorescence
Experimental: as §1

[9] = biological target: T3, soluble PDGFRβ (Fc or His format not stated for the experiment) (human, UniProt P09619 33-532); assay: binding titration (FIG. 12); taken as yeast display, receptor format not stated; to PDGFR; receptor format not stated
T3 construct: extracellular domain
T3 sequence (P09619 33-532): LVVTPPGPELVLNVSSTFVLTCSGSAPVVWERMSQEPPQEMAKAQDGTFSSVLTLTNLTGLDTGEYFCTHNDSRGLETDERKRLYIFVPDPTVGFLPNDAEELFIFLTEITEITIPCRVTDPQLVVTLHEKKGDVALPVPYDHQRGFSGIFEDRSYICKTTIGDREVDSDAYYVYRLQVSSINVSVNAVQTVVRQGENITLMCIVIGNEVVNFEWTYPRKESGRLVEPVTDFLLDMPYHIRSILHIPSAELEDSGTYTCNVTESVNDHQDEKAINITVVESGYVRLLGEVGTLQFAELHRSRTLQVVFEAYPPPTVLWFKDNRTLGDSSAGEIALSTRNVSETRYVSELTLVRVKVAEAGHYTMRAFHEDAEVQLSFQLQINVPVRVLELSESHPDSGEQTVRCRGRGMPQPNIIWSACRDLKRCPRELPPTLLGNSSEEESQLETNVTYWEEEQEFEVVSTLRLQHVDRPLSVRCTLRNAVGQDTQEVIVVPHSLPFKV

[10] = biological target: T4, soluble VEGFR2 (Fc or His format not stated for the experiment) (human, UniProt P35968 20-764); assay: binding titration (FIG. 12); taken as yeast display, receptor format not stated; to VEGFR; receptor format not stated
T4 construct: extracellular domain
T4 sequence (P35968 20-764): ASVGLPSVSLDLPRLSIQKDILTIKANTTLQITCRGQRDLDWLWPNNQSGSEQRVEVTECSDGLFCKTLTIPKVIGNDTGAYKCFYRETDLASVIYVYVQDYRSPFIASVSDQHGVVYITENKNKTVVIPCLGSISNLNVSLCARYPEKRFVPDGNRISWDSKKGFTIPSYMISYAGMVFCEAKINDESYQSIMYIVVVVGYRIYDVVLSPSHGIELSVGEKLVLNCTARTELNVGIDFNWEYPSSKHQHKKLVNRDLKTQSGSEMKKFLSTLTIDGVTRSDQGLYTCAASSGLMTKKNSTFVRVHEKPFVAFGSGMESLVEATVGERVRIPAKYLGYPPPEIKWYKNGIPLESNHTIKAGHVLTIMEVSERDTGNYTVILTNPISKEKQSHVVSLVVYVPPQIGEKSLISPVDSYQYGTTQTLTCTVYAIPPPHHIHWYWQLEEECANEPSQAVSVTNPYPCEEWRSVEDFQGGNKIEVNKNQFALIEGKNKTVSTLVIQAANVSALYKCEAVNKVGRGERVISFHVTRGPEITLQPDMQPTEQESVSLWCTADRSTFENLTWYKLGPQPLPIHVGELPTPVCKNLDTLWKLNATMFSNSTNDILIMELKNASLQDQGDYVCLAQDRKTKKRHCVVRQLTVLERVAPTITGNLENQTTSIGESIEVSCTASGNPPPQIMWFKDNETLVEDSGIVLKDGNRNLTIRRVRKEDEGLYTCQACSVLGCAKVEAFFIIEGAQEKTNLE

[11] = biological target: T3, soluble PDGFRβ (Fc or His format not …); assay: yeast surface display, flow cytometry titration of soluble receptor; panel 'PDGFR binding', Fc or His form not given
[12] = biological target: T1, PDGFRβ-His (residues 1-314 of PDGFR-β …); assay: yeast surface display, flow cytometry equilibrium titration of PDGFRβ-His (panel 'PDGFR-His'), normalized fluorescence
Experimental: as §1

T1 sequence (P09619 other isoform, or with tags, fused parts or gaps limits assumed, form in doubt): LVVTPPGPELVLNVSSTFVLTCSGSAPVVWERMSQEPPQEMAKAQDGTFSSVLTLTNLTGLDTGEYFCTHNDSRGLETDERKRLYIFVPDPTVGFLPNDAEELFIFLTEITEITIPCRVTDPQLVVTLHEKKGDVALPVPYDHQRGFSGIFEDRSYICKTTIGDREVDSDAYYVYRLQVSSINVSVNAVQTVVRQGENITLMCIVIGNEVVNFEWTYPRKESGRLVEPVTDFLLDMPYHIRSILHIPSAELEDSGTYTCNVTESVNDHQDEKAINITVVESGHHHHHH

B1: PVAM (4-22 RF), yeast-displayed (designed binder)
chain: IAEPAMIAECHPIETLVDILQEYPDEIGYIFKPSCVPLMRCGGCCNNRNVQCRPTEESNITMQIMRIKPHRGQHIGEMSFLQHNKCRCETVAAGSTSGSGKSSEGKGEVVKFMDVYQRSYCKTRTEVFEISRRLIDRTNANFLVWPPCVEVQRCSGCCNHEGLECVPTQVQLRPVQVRKIEFVRKKPIFKKATVTLEDHLACECRPKKD
notes: Combines K87R and I182F with F20L, E28G, Q71R and D160H
[1]
  fold improvement compared to PV6: 1100 fold
[2]
  fold improvement compared to PV6: 200 fold
[3]
  Kd: 390 pM
[4]
  Kd: 1100 pM
[5]
  Kd: 390 pM
[6]
  Kd: 1100 pM
[7]
  EC50 (read off the curve): ~300 pM
[8]
  EC50 (read off the curve): ~1000 pM
[9]
  Kd: 210 pM
[10]
  Kd: 2100 pM
[11]
  EC50 (read off the curve): ~200 pM
[12]
  EC50 (read off the curve): ~400 pM

— patent publication US20180111972A1 (Stanford University, published 2018)
